Experimental data published in article PMC2632915.

How the values were obtained:
[1] = molecular target: Hera_208–419 (C-terminal RecA domain and dimerization domain of T. thermophilus Hera) (Thermus thermophilus); assay: SEC
[2] = molecular target: Hera_208–419 (C-terminal RecA domain and dimerization domain of T. thermophilus Hera) (Thermus thermophilus); assay: SEC; remark: listed apart in the source
[3] = molecular target: Hera_208–419 (C-terminal RecA domain and dimerization domain of T. thermophilus Hera) (Thermus thermophilus); assay: crystal structure
[4] = molecular target: Hera_208–510 (C-terminal RecA domain, dimerization domain and RNA-binding domain of T. thermophilus Hera) (Thermus thermophilus); assay: SEC

Row | stoichiometry N [1] | stoichiometry N [2] | stoichiometry N [3] | stoichiometry N [4] | Substance
1 | 2 | 2 | 2 |  | Hera_208–419 (C-terminal RecA domain and dimerization domain of T. thermophilus Hera) (domain or fragment)
2 |  |  |  | 2 | Hera_208–510 (C-terminal RecA domain, dimerization domain and RNA-binding domain of T. thermophilus Hera) (domain or fragment)
